{"source": "paper PMC7793260", "about": "“MreC and MreD balance the interaction between the elongasome proteins PBP2 and RodA” (PLoS Genetics, 2020)", "binders": {"B1": {"name": "RodA (wild type), fused to mCherry or to mKO (enzyme, E. coli, UniProt P0ABG7 1-370, looked up)", "chain": "MTDNPNKKTFWDKVHLDPTMLLILLALLVYSALVIWSASGQDIGMMERKIGQIAMGLVIMVVMAQIPPRVYEGWAPYLYIICIILLVAVDAFGAISKGAQRWLDLGIVRFQPSEIAKIAVPLMVARFINRDVCPPSLKNTGIALVLIFMPTLLVAAQPDLGTSILVALSGLFVLFLSGLSWRLIGVAVVLVAAFIPILWFFLMHDYQRQRVMMLLDPESDPLGAGYHIIQSKIAIGSGGLRGKGWLHGTQSQLEFLPERHTDFIFAVLAEELGLVGILILLALYILLIMRGLWIAARAQTTFGRVMAGGLMLILFVYVFVNIGMVSGILPVVGVPLPLVSYGGSALIVLMAGFGIVMSIHTHRKMLSKSV", "notes": "RodA, peptidoglycan glycosyltransferase of the E. coli elongasome; wild-type rodA gene; mCh-RodA in all others; also called mCh-RodA; mKO-RodA; source: E. coli LMC500, expressed from plasmid (15 uM IPTG), in fixed cells; not shown: mCherry (acceptor construct, pSAV047-RodA) or mKO (donor construct, pXL56), N-terminal, kept"}}, "molecular_target": "T1, mKO-PBP2^L61R (E. coli, UniProt P0AD65 1-633, L61R)", "T1 construct": "PBP2 of E. coli with L61R (hyperactive variant); made from pWA004 by mutagenesis PCR; also called hyperactive PBP2^L61R; source: E. coli LMC500, expressed from plasmid (15 uM IPTG), in fixed cells; not shown: mKO, N-terminal, kept", "T1 sequence (looked up)": "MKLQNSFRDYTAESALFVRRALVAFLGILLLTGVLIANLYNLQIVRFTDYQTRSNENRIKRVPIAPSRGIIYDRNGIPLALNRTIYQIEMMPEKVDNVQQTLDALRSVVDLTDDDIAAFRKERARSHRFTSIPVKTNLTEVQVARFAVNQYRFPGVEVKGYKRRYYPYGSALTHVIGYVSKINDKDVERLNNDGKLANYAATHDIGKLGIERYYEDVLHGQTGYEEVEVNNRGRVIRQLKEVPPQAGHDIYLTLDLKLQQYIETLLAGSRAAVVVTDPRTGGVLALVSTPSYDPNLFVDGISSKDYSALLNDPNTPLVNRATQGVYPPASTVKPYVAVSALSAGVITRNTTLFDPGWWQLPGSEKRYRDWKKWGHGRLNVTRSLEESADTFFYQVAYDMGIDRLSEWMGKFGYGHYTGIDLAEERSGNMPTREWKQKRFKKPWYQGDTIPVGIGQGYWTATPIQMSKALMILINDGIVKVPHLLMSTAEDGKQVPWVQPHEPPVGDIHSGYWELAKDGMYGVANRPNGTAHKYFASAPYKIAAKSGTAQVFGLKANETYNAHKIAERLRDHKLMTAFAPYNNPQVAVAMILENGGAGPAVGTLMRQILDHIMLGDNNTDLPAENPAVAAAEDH", "experiment": "FRET or BRET; as the two-plasmid FRET, cells treated with mecillinam (2 mg/L) for two mass doublings", "details": "partners not purified", "data": [{"binder": "B1", "values": [{"measurement": "EfA (acceptor FRET efficiency)", "value": 6.3, "unit": "%"}]}]}
